Assay results reported in patent publication US20150031754, “APTAMER MODULATORS OF ESTROGEN RECEPTORS” (RESEARCH FOUNDATION OF STATE UNIVERSITY OF NEW YORK AT …, published 2015).

Assays:
[1] = molecular target: T1, SNAP-tag (control) (UniProt P16455); assay: pulldown; details: SNAP-tag control background
T1 sequence: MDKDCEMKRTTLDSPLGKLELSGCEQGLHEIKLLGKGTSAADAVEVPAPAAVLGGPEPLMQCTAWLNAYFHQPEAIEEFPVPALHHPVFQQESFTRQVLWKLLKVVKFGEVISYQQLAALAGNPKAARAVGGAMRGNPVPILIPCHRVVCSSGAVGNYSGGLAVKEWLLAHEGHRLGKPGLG

[2] = molecular target: T2, Human estrogen receptor alpha (hERα), full-length, unliganded (Homo sapiens, UniProt P03372 P03372:1-595); assay: EMSA; 200 nM ERα; two shifted bands; details: tags: none stated; baculovirus/insect cells; Invitrogen P2187 or EMD4 Biosciences 330655; label: labeled
[3] = molecular target: T2, Human estrogen receptor alpha (hERα), …; assay: filter; same buffer, 37 C; Hill n>1; details: tags: none stated; baculovirus/insect cells; Invitrogen P2187 or EMD4 Biosciences 330655; label: 32P-CTP internal
Protocol: The dissociation constant (Kd) of the AptER-1, -2, -3, and -4 were measured using a nitrocellulose filter binding assay. A constant trace amount of [γ-³²P]-CTP incorporated RNA aptamer (˜0.1 nM) was titrated with increasing amounts of the target protein ranging from 5 to 150 nM. The binding activity at each concentration was determined as % binding, by calculating the radioactive signal of the RNA-protein complex retained on the filter as a percentage of the signal at the highest protein concentration (saturated) used. The assays were performed in triplicates for each aptamer. A binding curve was constructed using Sigma Plot 9.0.1, with average binding affinity (% binding) as a function of the protein concentration using a sigmoidal equation (Hill equation, 3 parameters). Apparent Kd was the protein concentration where half of the maximal binding activity was achieved, and were calculated from the data points by using Sigma Plot. […] The first 3 aptamers were isolated in in vitro selection I, and their affinity rank explains the relative abundance in the final selected library. More specifically, it is believed that AptER-1 dominated the final selected pool because it was the strongest binder. AptER-4 was the weakest binder, and would not have been easily identified in the selection I libraries.

[4] = molecular target: Human estrogen receptor beta (hERβ) (Homo sapiens, UniProt Q92731 Q92731:1-530); assay: EMSA; affinity similar to hERα; details: tags: none stated; baculovirus/insect cells; EMD4 Biosciences 330657; label: 32P-CTP internal
Protocol: FIGS. 9A-B illustrate the binding specificity of AptER-1, -2 and -3. […] Radiolabeled AptER-1, -2 and -3 (0.1 nM) were incubated with 20 nM hERα, 200 nM hERβ, or 200 μg/ml HeLa nuclear extract (NE). Binding reactions were resolved on a 4.8% polyacrylamide gel (acrylamide:bis-acrylamide=37.5:1) in ¼×TBE buffer. […] Radiolabeled AptER-1, -2 and -3 (0.1 nM) were incubated with 20 nM or 40 nM hERα, or hERβ. Binding reactions were resolved as described above.
To examine the binding specificity of the first set of isolated aptamers, AptER-1, -2 and -3, proteins were presented at high concentrations in ESMA, including hERβ at 200 nM or HeLa nuclear extract at 200 μg/ml, which should allow detection of weak binding activity. […] This was confirmed in a second EMSA using the two ER subtypes at the same concentrations (FIG. 9B). Furthermore, the binding affinities to the two forms were very close, as shown in the EMSA, and this was more carefully compared with the binding curves of AptER-1 (FIG. 8A). […] In the presence of HeLa nuclear extract (FIG. 9A), no specific shifted band could be observed.

[5] = molecular target: T2, Human estrogen receptor alpha (hERα), …; assay: EMSA; no binding; method EMSA or filter; details: tags: none stated; baculovirus/insect cells; Invitrogen P2187 or EMD4 Biosciences 330655
[6] = molecular target: T2, Human estrogen receptor alpha (hERα), …; assay: EMSA; 25 nM hERα; no difference from sB63; details: tags: none stated; baculovirus/insect cells; Invitrogen P2187 or EMD4 Biosciences 330655; label: 32P internal
[7] = molecular target: T2, Human estrogen receptor alpha (hERα), …; assay: EMSA; 10 mM MgCl2, 37 C binding; details: tags: none stated; baculovirus/insect cells; Invitrogen P2187 or EMD4 Biosciences 330655; label: 32P internal; stem-loop
[8] = molecular target: T2, Human estrogen receptor alpha (hERα), …; assay: EMSA; 200 nM ERα; one complex; BSA and yeast RNA competitors; details: tags: none stated; baculovirus/insect cells; Invitrogen P2187 or EMD4 Biosciences 330655; label: labeled
[9] = molecular target: T2, Human estrogen receptor alpha (hERα), …; assay: EMSA; about half shifted below 15 nM; more than two-fold stronger than monomer; details: tags: none stated; baculovirus/insect cells; Invitrogen P2187 or EMD4 Biosciences 330655; label: 32P-CTP internal; two AptER-1(53nt) units on three-way junction of H. marismortui 5S RNA
[10] = molecular target: T2, Human estrogen receptor alpha (hERα), …; assay: EMSA; 35 nM hERα; fully active; details: tags: none stated; baculovirus/insect cells; Invitrogen P2187 or EMD4 Biosciences 330655; label: 32P internal; stem-loop
[11] = molecular target: hERα DNA-binding domain (Homo sapiens, UniProt P03372 P03372:180-268); assay: EMSA; 100-400 nM DBD, 5 nM DNA; details: tags: N-terminal His6; E. coli BL21(DE3); label: 5'-32P; hairpin with GAAA tetraloop, ERE in stem
Protocol: (§1) No binding activity to RNase inhibitor (control) or DBD & RNase inhibitor was detected. The binding reactions were resolved on the same type of gel as above. […] End-radiolabeled ERE-50mer at 5 nM was mixed with 100× or 400× more concentrated unlabeled competitors ERE-50mer, AptER-1, -2 and -3 RNA or an early generation pool in hERα selection G1 before addition of hERα (40 nM). Only cold ERE-50mer disrupted radioactive ERE-hERα complex.
Class I aptamers bound with similar affinities to both subtypes of ER, which share the highest homology (96%) in the DBD. This raised the possibility that the target site of Class I aptamers was located within the DBD. Whether the aptamers bind to the DBD was tested in binding assays using a recombinant hERα-DBD. It was expressed as a His₆-tagged fusion protein in E. coli BL21 (DE3) and purified as described in the Materials and Methods. To verify its ERE-binding capability, a DNA EMSA was performed. DNA oligo ERE-50mer contains a GAAA tetra loop, which forces the oligo to form a hairpin. A copy of Xenopus laevis vitellogenin A2 ERE (5′-[…]-3′, SEQ ID NO: 73) was presented in the stem of a hairpin. […] However, in both EMSA (FIG. 11B) and filter-binding assay, no association was detected between AptER-1 and DBD. […]

[12] = molecular target: T2, Human estrogen receptor alpha (hERα), …; assay: EMSA; not competed by AptER-1, -2, -3 or -4; competed by cold ERE; details: tags: none stated; baculovirus/insect cells; Invitrogen P2187 or EMD4 Biosciences 330655; label: 5'-32P; hairpin with GAAA tetraloop, ERE in stem
Protocol: as §1
Whether the aptamers bind to the DNA binding site on the full-length hERα was tested in cross-competition assays using ERE-50mer as a specific competitor. Radiolabeled ERE-50mer was competed with 100× or 400× more concentrated nonradioactive competitors ERE-50mer, AptER-1, -2, -3 or Generation 1 pool of hERα selection G1 (see Example 1). Radiolabeled ERE-50mer at 5 nM was mixed with the competitors before the addition of hERα at 50 nM. The binding reaction was set up as described in the Materials and Methods, and electrophorised in a 4.8% polyacrylamide gel (acrylamide:bis-acrylamide=50:1) in ½ ΔTGB. ERE-50mer served as a positive control of competition, whereas the G1 pool was a negative control. […] This agreed with the result from a second cross-competition assay between radiolabeled AptER-1 and unlabeled ERE-50mer for binding to human ERα (FIG. 9A).

T2 sequence (P03372 whole entry, one chain of several): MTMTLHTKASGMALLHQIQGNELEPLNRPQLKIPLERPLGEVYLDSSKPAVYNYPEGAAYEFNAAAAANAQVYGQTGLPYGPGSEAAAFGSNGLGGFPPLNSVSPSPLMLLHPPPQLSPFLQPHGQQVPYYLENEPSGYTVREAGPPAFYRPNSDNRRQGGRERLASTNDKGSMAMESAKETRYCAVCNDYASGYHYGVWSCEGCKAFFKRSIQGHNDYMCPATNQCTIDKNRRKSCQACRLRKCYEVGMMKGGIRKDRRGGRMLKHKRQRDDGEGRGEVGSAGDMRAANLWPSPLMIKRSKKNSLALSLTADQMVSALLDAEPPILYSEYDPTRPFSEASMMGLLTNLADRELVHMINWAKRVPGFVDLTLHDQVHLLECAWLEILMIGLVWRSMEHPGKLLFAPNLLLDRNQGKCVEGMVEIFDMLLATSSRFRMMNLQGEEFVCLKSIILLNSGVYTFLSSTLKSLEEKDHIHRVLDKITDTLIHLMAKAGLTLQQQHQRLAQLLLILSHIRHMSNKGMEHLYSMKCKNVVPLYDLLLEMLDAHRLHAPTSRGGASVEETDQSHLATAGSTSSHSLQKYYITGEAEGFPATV
Sequence of Human estrogen receptor beta (hERβ) (Q92731 whole entry, one chain of several): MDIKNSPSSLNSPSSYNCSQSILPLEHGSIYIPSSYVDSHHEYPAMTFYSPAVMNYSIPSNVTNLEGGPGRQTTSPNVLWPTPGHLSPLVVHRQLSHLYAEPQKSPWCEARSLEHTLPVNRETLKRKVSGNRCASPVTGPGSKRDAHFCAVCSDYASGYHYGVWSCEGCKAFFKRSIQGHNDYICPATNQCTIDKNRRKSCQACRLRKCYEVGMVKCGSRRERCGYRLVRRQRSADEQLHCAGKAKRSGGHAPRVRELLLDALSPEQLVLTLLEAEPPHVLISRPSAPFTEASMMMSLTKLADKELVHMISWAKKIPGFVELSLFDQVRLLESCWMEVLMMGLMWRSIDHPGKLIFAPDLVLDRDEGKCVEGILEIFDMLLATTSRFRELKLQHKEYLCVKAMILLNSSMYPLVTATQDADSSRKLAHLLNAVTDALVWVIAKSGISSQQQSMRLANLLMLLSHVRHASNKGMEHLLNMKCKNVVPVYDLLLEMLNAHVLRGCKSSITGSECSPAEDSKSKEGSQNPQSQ
Sequence of hERα DNA-binding domain (P03372 180-268, one chain of several): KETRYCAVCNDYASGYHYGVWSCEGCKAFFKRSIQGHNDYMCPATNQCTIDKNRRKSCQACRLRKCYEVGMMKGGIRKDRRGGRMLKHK

## GCGUGACGGGCACCGCGAACAAAACGCAAGACAGAGUGCCGACAAGAGCACUACAAGCCCGUCCAUACUCCGGCACCGCGAACAAAACGCAAGACAGAGUGCCGACAAGAGCACUAACAGCCGGAGGCGCUU [AptER-1x2 (expressed dimer)]
[1]
  binding signal (fold (control reference)): 1

B1: ERL5-6 (ssRNA)
RNA: GGGAGAAUUCAACUGCCAUCUAAAUGAAAGGACGCACACUACGUGUCCUACAAACACAGAAACAAAAACCGAACUACAAGCUUCUGGACUCGGU
[2]
  binding result: binds

B2: AptER-3 (ssRNA)
RNA: GGGAGAAUUCAACUGCCAUCUAGGCGACCCAGGGCCGGGACGCAAAGCAGCCAAAACAGACGGCCCCAGUCAGGGAGUUACUACAAGCUUCUGGACUCGGU
[3]
  Kd: 0.03 µM
[4]
  binding result: binds

B3: AptER-1 34nt version (ssRNA)
RNA: GGGCACCGCGAACAAAACGCAAGACAGAGUGCCC
[5]
  binding result: no binding

B4: sB65 (65nt truncated clone B65) (ssRNA)
RNA: GGGCAGAAGCACCGCGAACAAAACGCAAGACAGAGUGCCGACAAGAGCACUACAAGCUUCUGCCC
[6]
  binding result: binds

B5: AptER-1(65nt) (sB63) (ssRNA)
RNA: GGGCAGAGGCACCGCGAACAAAACGCAAGACAGAGUGCCGACAAGAGCACUACAAGCUUCUGCCC
[7]
  Kd: ~0.03 µM

B6: ERL5-1 (ssRNA)
RNA: GGGAGAAUUCAACUGCCAUCUACAAGCCAAGCAAGCGAGCAAAAAACGCGAGCAUCCGAGCUCCAAGACGUACUACAAGCUUCUGGACUCGGU
[8]
  binding result: binds

B7: AptER-2 (ssRNA)
RNA: GGGAGAAUUCAACUGCCAUCUAGGCACACGCGAGAUAGAGCGAGGCCUCCAAAAAUGGCCACGCCAGGAAGCAAGUACUACAAGCUUCUGGACUCGGU
[3]
  Kd: 0.021 µM
[4]
  binding result: binds

B8: AptER-1x2(138nt) dimer (ssRNA)
RNA: GGAUCCGUGACGGGCACCGCGAACAAAACGCAAGACAGAGUGCCGACAAGAGCACUACAAGCCCGUCCAUACUCCGGCACCGCGAACAAAACGCAAGACAGAGUGCCGACAAGAGCACUAACAGCCGGAGGCGGAUCC
[9]
  Kd: < 0.015 µM

B9: AptER-1(53nt) (ssRNA)
RNA: GGGCACCGCGAACAAAACGCAAGACAGAGUGCCGACAAGAGCACUACAAGCCC
[10]
  binding result: binds

B10: ERL5-4 (ssRNA)
RNA: GGGAGAAUUCAACUGCCAUCUAACAGCCAAGUAAGCGACAACGACAAUCAAUGACGCGAACAAUCCGAAAGAACUACAAGCUUCUGGACUCGGU
[2]
  binding result: binds

B11: ERE-50mer (structured_DNA)
DNA: AGTCAGGTCACAGTGACCTGATCGAAAGATCAGGTCACTGTGACCTGACT
[11]
  binding result: binds
[12]
  binding result: binds

B12: ERL5-5 (ssRNA)
RNA: GGGAGAAUUCAACUGCCAUCUACAGAAGGACCGCGAGGGUAAAAACCACGCACGACAGAGUAUAACAAAACAACUACAAGCUUCUGGACUCGGU
[2]
  binding result: binds
